Experimental findings from PMC11374688, “Structural basis for transthiolation intermediates in the ubiquitin pathway” (Nature, 2024) are described below.

The experiment concerns the target T1, Schizosaccharomyces pombe Uba1 (lacking the first 12 amino acids) (S. pombe, UniProt O94609 13-1012, active site cysteine thiol linked to the dithioacetal carbon of the Ub(T) Gly76 surrogate).
T1 construct: Full-length Uba1 was used in the transthiolation assays; this molecule also stands for it in the functional rows; also called E1; source: E. coli BL21 (DE3) codon plus, purified (Ni-NTA, Ulp1, SEC, MonoQ)
T1 sequence (looked up): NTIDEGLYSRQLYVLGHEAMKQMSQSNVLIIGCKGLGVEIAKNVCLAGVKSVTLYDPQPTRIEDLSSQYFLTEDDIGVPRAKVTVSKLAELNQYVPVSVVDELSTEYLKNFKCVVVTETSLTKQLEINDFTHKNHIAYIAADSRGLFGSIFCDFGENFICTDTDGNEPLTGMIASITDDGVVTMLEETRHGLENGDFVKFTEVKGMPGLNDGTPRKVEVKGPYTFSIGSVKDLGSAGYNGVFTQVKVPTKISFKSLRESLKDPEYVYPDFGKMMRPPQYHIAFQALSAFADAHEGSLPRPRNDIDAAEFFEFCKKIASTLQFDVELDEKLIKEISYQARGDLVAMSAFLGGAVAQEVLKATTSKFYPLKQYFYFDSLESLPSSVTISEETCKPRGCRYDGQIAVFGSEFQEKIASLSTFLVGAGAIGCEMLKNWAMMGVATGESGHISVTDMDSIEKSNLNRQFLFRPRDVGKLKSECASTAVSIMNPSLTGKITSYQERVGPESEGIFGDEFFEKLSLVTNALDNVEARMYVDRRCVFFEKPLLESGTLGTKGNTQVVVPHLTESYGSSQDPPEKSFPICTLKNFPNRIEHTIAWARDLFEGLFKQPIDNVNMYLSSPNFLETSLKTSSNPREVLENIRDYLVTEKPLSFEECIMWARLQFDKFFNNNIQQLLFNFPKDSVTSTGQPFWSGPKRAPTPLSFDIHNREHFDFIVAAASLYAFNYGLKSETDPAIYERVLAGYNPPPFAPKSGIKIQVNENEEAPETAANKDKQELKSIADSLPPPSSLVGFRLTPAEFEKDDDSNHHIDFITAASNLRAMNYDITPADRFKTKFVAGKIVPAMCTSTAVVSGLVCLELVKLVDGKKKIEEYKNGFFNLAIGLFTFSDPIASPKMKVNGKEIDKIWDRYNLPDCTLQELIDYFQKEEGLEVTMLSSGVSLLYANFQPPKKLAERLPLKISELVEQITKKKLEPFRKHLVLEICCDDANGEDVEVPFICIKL
Kind of experiment: cryo-EM structure; E1–Ub(T)–E2 (Ub(T) Gly76 surrogate covalently linked to the E1 and E2 active site cysteines) at 3 mg/ml in Tris-HCl pH 7.2, 100 mM NaCl, preincubated 30 min on ice with 5 mM MgCl2, 1 mM ATP and ~0.8 molar equivalents of Ub; 0.05% CHAPSO; doubly and singly loaded complexes resolved from the same sample. The conditions noted are these: both partners purified.

B1: S. pombe Ub without tags (natural protein)
chain: not shown
notes: In clusters 3 to 5 of the doubly loaded complex the C terminus of Ub(A) is adenylated (Ub(A)-AMP); also called Ub(A); native Ub; source: E. coli BL21 (DE3) codon plus, purified (as described previously, with additional SEC)
Regarding B1, the binding result was “binds”.
